What was measured:
[1] = target: RTL342m (α1β1 domains of DR2 linked to mouse MOG-35-55 peptide) (human HLA-DR2 (DRA*01:01/DRB1*15:01) …, UniProt Q61885;IMGT); assay: ELISA
[2] = target: T1, RTL340 (DR2/MBP-85-99), biotinylated version (human, DRA*01:01/DRB1*15:01, biotin on the Bir-A tag); assay: ELISA
T1 chain 1: ENPVVHFFKNIVTPR
T1 chain 2: not shown
T1 chain 3: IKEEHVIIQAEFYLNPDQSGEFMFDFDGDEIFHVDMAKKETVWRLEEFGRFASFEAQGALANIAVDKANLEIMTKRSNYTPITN

B1: Fab 1F11 (Fab, V domains shown)
VH: QLQLQESGPGLVKPSETLSLTCTVSGVSISSRSGHWGWVRQPPGKGLEWIGSISYSGSTYYNPSLKSRVTISVDTSKNQLSLKLSSVTAADTAVYYCARESHPAAALVGWGQGTLVTVSS
VL: ETTLTQSPGTLSLSPGERATLSCRASQSIINSHLAWYQQKPGQAPRLLIYGASSRATGIPDRFSGGGSGTDFTLTITRLETEDFALYFCQQYGTSPLTFGGGTRVETK
- fold reduction in ELISA binding to RTL342m compared to RTL1000 [1]: 5 fold

B2: Fab 3A3 (Fab, V domains shown)
VH: QVQLQESGGGLVKPGGSLRLSCAASGFTFSSYSMNWVRQAPGKGLEWVSSISSSSSYIYYADSVKGRFTISRDNAKNSLYLQMNSLRAEDTAVYYCARVRGHRYYYDSSGYYSSDYYYYYGMDVWGQGTTVTVSS
VL: DIQLTQSPSSVSASVGDRVTITCRASQVISSWLAWYQQKPGKAPKLLISTASSLQSGVPPRFSGSGSGTDFTLTITSLQPEDFATYYCQQANSFPLTFGQGTKVEIK
- fold reduction in ELISA binding to RTL342m compared to RTL1000 [1]: 5 fold

B3: Fab 2E4 (Fab, V domains shown)
VH: EVQLVESGAEVKKPGASVKVSCKASGYTFTSYYMHWVRQAPGQGLEWMGIINPSGGSTSYAQKFQGRVTMTRDTSTSTVYMELSSLRSEDTAVYYCAREGDNYYGDAFDIWGQGTMVTVSS
VL: EIVLTQSPATLSLSPGERATLSCRASQSVSSYLAWYQQKPGQAPRLLIYDASNRATGIPARFSGSGSGTDFTLTISSLEPEDFAVYYCQQRSNWPPSYTFGQGTKLEIK
- fold reduction in ELISA binding to RTL342m compared to RTL1000 [1]: 2 fold

B4: Fab 2C3 (Fab, V domains shown)
VH: QVQLVQSGGGVVQPGRSLRLSCAASGFTFSSYAMHWVRQAPGKGLEWVAVISYDGSNKYYADSVKGRFTISRDNSKNTLYLQMNSLRAEDTAVYYCARDRSFWSGYYIINYYYYGMDVWGQGTTVTVSS
VL: DVVMTQSPLSLPVTPGEPASISCRSSQSLLHSDGNNYLDWYLQKPGQSPQLLIYLGSNRASGVPDRFSGSGSGTDFTLKISRVEPEDVGVYYCMQALHIPLTFGQGTRLEIK
- binding result [2]: no binding
